This experiment concerns the target Aqy1 from Pichia pastoris (Pichia pastoris). Nature of the experiment: crystal structure; hanging drop vapour diffusion at 4°C, protein at 9 mg/ml in beta-octylglucopyranoside; Crystal1: 28% PEG400, 100 mM Na-citrate pH 3.5, 200 mM Li2SO4 (1.15 Å); Crystal2: 33% PEG400, 100 mM Tris pH 8.0, 100 mM NaCl, 100 mM CdCl2 (1.40 Å); both space group I4, identical structures.

Here are results for one substance from PMC2688079.

What is called stoichiometry N is the number of molecules, sites or subunits per partner or assembly.

As to “Aqy1 from Pichia pastoris (natural protein)”, the stoichiometry N turned out to be 4.
